According to patent US20110263454A1, “Methods of Identifying Functional Characteristics of Promoters, Transcription Modifying Proteins and Transcription Modulating Agents” (Salk Institute for Biological Studies, priority 2008, published 2011):

Tests used:
[1] = system: mUCP3 promoter; experiment: NHR-promoter luciferase screen, mUCP3 promoter; assay type: cell-based, mouse; conditions: for Normalized Luc. act., normalized to control / Luc. act., normalized to lacZ: mUCP3 promoter reporter; for Normalized Luc. act., normalized to control: HR without or with its ligand, relative to control; for Luc. act., normalized to lacZ: hormone receptor (HR) without or with its ligand; for mUCP3 promoter reporter activity: transcription factor +/- ligand, control = 1.00
How it was run: (§1)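 CV-1 cells were co-transfected with 50 ng NHR (homodimer or NHR/RXR heterodimer), 100 ng promoter-luciferase construct and 50 ng LacZ. Luciferase was normalized to LacZ and to a no-NHR/no-ligand control.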

[2] = system: mNPY promoter; experiment: NHR-promoter luciferase screen, mNPY promoter; assay type: cell-based, mouse; conditions: for Results of assays of transcription factor (+/- ligand) with mNPY: Table 6d, luciferase activity relative to control (control = 1.00); for Luc. act., normalized to lacZ / Normalized Luc. act., normalized to control: mNPY promoter, HR component with or without ligand; for Normalized Luc. act., normalized to control: relative to control
How it was run: as §1

[3] = system: hCAR promoter; experiment: NHR-promoter luciferase screen, hCAR promoter; assay type: cell-based, human; conditions: for luciferase activity normalized to lacZ activity and to a control, hCAR: hCAR promoter-luciferase, CV-1 cells, NHR +/- ligand, control = 1.00; for Luc. act., normalized to lacZ / Normalized Luc. act., normalized to control: hCAR promoter, HR/ligand component
How it was run: as §1

[4] = system: mLeptin promoter; experiment: NHR-promoter luciferase screen, mLeptin promoter; assay type: cell-based, mouse; conditions: for Luc. act., normalized to lacZ / Normalized Luc. act., normalized to control: Table 7, mLeptin; for Results of assays of transcription factor (+/- ligand) with mLeptin: Table 6d, luciferase activity relative to control (control = 1.00)
How it was run: as §1

[5] = system: mAdiponectin promoter; experiment: NHR-promoter luciferase screen, mAdiponectin promoter; assay type: cell-based, mouse; conditions: for Luc. act., normalized to lacZ / Normalized Luc. act., normalized to control: Adiponectin, HR component without or with its ligand; for mAdiponectin promoter reporter activity: transcription factor +/- ligand, control = 1.00
How it was run: as §1

[6] = system: mABCA1 promoter; experiment: NHR-promoter luciferase screen, mABCA1 promoter; assay type: cell-based, mouse; conditions: for Luc. act., normalized to lacZ / Normalized Luc. act., normalized to control: ABCA1 promoter, hormone receptor with or without its ligand; for Normalized Luc. act., normalized to control: relative to control; for mABCA1 promoter reporter activity: transcription factor +/- ligand, control = 1.00
How it was run: as §1

Row | Molecule | Normalized Luc. act., normalized to control [1] | Luc. act., normalized to lacZ [1] | mUCP3 promoter reporter activity [1] | Results of assays of transcription factor (+/- ligand) with mNPY [2] | Luc. act., normalized to lacZ [2] | Normalized Luc. act., normalized to control [2] | luciferase activity normalized to lacZ activity and to a control, hCAR [3] | Luc. act., normalized to lacZ [3] | Normalized Luc. act., normalized to control [3] | Luc. act., normalized to lacZ [4] | Normalized Luc. act., normalized to control [4] | Results of assays of transcription factor (+/- ligand) with mLeptin [4] | Luc. act., normalized to lacZ [5] | Normalized Luc. act., normalized to control [5] | mAdiponectin promoter reporter activity [5] | Luc. act., normalized to lacZ [6] | Normalized Luc. act., normalized to control [6] | mABCA1 promoter reporter activity [6]
1 | RVRb: Rev-Erb β (NR1D2, alternative name RVR), cDNA driver (protein, UniProt Q14995 1-579, looked up) Nuclear receptor subfamily 1 …: MEVNAGGVIAYISSSSSASSPASCHSEGSENSFQSSSSSVPSSPNSSNSDTNGNPKNGDLANIEGILKNDRIDCSMKTSKSSAPGMTKSHSGVTKFSGMVLLCKVCGDVASGFHYGVHACEGCKGFFRRSIQQNIQYKKCLKNENCSIMRMNRNRCQQCRFKKCLSVGMSRDAVRFGRIPKREKQRMLIEMQSAMKTMMNSQFSGHLQNDTLVEHHEQTALPAQEQLRPKPQLEQENIKSSSPPSSDFAKEEVIGMVTRAHKDTFMYNQEQQENSAESMQPQRGERIPKNMEQYNLNHDHCGNGLSSHFPCSESQQHLNGQFKGRNIMHYPNGHAICIANGHCMNFSNAYTQRVCDRVPIDGFSQNENKNSYLCNTGGRMHLVCPMSKSPYVDPHKSGHEIWEEFSMSFTPAVKEVVEFAKRIPGFRDLSQHDQVNLLKAGTFEVLMVRFASLFDAKERTVTFLSGKKYSVDDLHSMGAGDLLNSMFEFSEKLNALQLSDEEMSLFTAVVLVSADRSGIENVNSVEALQETLIRALRTLIMKNHPNEASIFTKLLLKLPDLRSLNNMHSEELLAFKVHP | 1.9 | 1.3 | 1.91 | 1.67 | 140.6 | 1.7 | 1.13 | 35.7 | 1.1 | 4.4 | 1.5 | 1.50 | 66.3 | 1.1 | 1.06 | 36.8 | 6.6 | 6.55
2 | RARa: Retinoic acid receptor α (NR1B1), nuclear hormone receptor cDNA driver (protein, UniProt P10276 1-462, looked up) Retinoic acid receptor alpha: MASNSSSCPTPGGGHLNGYPVPPYAFFFPPMLGGLSPPGALTTLQHQLPVSGYSTPSPATIETQSSSSEEIVPSPPSPPPLPRIYKPCFVCQDKSSGYHYGVSACEGCKGFFRRSIQKNMVYTCHRDKNCIINKVTRNRCQYCRLQKCFEVGMSKESVRNDRNKKKKEVPKPECSESYTLTPEVGELIEKVRKAHQETFPALCQLGKYTTNNSSEQRVSLDIDLWDKFSELSTKCIIKTVEFAKQLPGFTTLTIADQITLLKAACLDILILRICTRYTPEQDTMTFSDGLTLNRTQMHNAGFGPLTDLVFAFANQLLPLEMDDAETGLLSAICLICGDRQDLEQPDRVDMLQEPLLEALKVYVRKRRPSRPHMFPKMLMKITDLRSISAKGAERVITLKMEIPGSMPPLIQEMLENSEGLDTLSGQPGGGGRDGGGLAPPPGSCSPSLSPSSNRSSPATHSP | 1.8 | 1.2 | 1.76 | 1.24 | 103.8 | 1.2 | 1.05 | 33.2 | 1.1 | 2.4 | 0.8 | 0.82 | 78.6 | 1.3 | 1.25 | 24.6 | 4.4 | 4.39
3 | RARb: Retinoic acid receptor β (NR1B2), nuclear hormone receptor cDNA driver (protein, UniProt P10826 1-455, looked up) Retinoic acid receptor beta: MTTSGHACPVPAVNGHMTHYPATPYPLLFPPVIGGLSLPPLHGLHGHPPPSGCSTPSPATIETQSTSSEELVPSPPSPLPPPRVYKPCFVCQDKSSGYHYGVSACEGCKGFFRRSIQKNMIYTCHRDKNCVINKVTRNRCQYCRLQKCFEVGMSKESVRNDRNKKKKETSKQECTESYEMTAELDDLTEKIRKAHQETFPSLCQLGKYTTNSSADHRVRLDLGLWDKFSELATKCIIKIVEFAKRLPGFTGLTIADQITLLKAACLDILILRICTRYTPEQDTMTFSDGLTLNRTQMHNAGFGPLTDLVFTFANQLLPLEMDDTETGLLSAICLICGDRQDLEEPTKVDKLQEPLLEALKIYIRKRRPSKPHMFPKILMKITDLRSISAKGAERVITLKMEIPGSMPPLIQEMLENSEGHEPLTPSSSGNTAEHSPSISPSSVENSGVSQSPLVQ | 2.1 | 1.4 | 2.08 | 1.17 | 97.9 | 1.2 | 1.31 | 41.4 | 1.3 | 2.7 | 0.9 | 0.91 | 81.2 | 1.3 | 1.29 | 36.8 | 6.6 | 6.55
4 | RARg: Retinoic acid receptor γ (NR1B3), nuclear hormone receptor cDNA driver (protein, UniProt P13631 1-454, looked up) Retinoic acid receptor gamma: MATNKERLFAAGALGPGSGYPGAGFPFAFPGALRGSPPFEMLSPSFRGLGQPDLPKEMASLSVETQSTSSEEMVPSSPSPPPPPRVYKPCFVCNDKSSGYHYGVSSCEGCKGFFRRSIQKNMVYTCHRDKNCIINKVTRNRCQYCRLQKCFEVGMSKEAVRNDRNKKKKEVKEEGSPDSYELSPQLEELITKVSKAHQETFPSLCQLGKYTTNSSADHRVQLDLGLWDKFSELATKCIIKIVEFAKRLPGFTGLSIADQITLLKAACLDILMLRICTRYTPEQDTMTFSDGLTLNRTQMHNAGFGPLTDLVFAFAGQLLPLEMDDTETGLLSAICLICGDRMDLEEPEKVDKLQEPLLEALRLYARRRRPSQPYMFPRMLMKITDLRGISTKGAERAITLKMEIPGPMPPLIREMLENPEMFEDDSSQPGPHPNASSEDEVPGGQGKGGLKSPA | 2.0 | 1.3 | 1.98 | 1.20 | 100.5 | 1.2 | 0.99 | 31.4 | 1.0 | 3.6 | 1.2 | 1.21 | 62.6 | 1.0 | 1.00 | 26.4 | 4.7 | 4.69
5 | PPARd: Peroxisome proliferator activated receptor δ (NR1C2), cDNA driver (protein, UniProt Q03181 1-441, looked up) Peroxisome …: MEQPQEEAPEVREEEEKEEVAEAEGAPELNGGPQHALPSSSYTDLSRSSSPPSLLDQLQMGCDGASCGSLNMECRVCGDKASGFHYGVHACEGCKGFFRRTIRMKLEYEKCERSCKIQKKNRNKCQYCRFQKCLALGMSHNAIRFGRMPEAEKRKLVAGLTANEGSQYNPQVADLKAFSKHIYNAYLKNFNMTKKKARSILTGKASHTAPFVIHDIETLWQAEKGLVWKQLVNGLPPYKEISVHVFYRCQCTTVETVRELTEFAKSIPSFSSLFLNDQVTLLKYGVHEAIFAMLASIVNKDGLLVANGSGFVTREFLRSLRKPFSDIIEPKFEFAVKFNALELDDSDLALFIAAIILCGDRPGLMNVPRVEAIQDTILRALEFHLQANHPDAQYLFPKLLQKMADLRQLVTEHAQMMQRIKKTETETSLHPLLQEIYKDMY | 1.7 | 1.1 | 1.69 | 0.70 | 58.5 | 0.7 | 1.22 | 38.6 | 1.2 | 2.6 | 0.9 | 0.89 | 89.4 | 1.4 | 1.42 | 13.8 | 2.5 | 2.46
6 | FXR: Farnesoid X Receptor (NR1H4), cDNA driver (protein, UniProt Q96RI1 1-486, looked up) Bile acid receptor: MVMQFQGLENPIQISPHCSCTPSGFFMEMMSMKPAKGVLTEQVAGPLGQNLEVEPYSQYSNVQFPQVQPQISSSSYYSNLGFYPQQPEEWYSPGIYELRRMPAETLYQGETEVAEMPVTKKPRMGASAGRIKGDELCVVCGDRASGYHYNALTCEGCKGFFRRSITKNAVYKCKNGGNCVMDMYMRRKCQECRLRKCKEMGMLAECMYTGLLTEIQCKSKRLRKNVKQHADQTVNEDSEGRDLRQVTSTTKSCREKTELTPDQQTLLHFIMDSYNKQRMPQEITNKILKEEFSAEENFLILTEMATNHVQVLVEFTKKLPGFQTLDHEDQIALLKGSAVEAMFLRSAEIFNKKLPSGHSDLLEERIRNSGISDEYITPMFSFYKSIGELKMTQEEYALLTAIVILSPDRQYIKDREAVEKLQEPLLDVLQKLCKIHQPENPQHFACLLGRLTELRTFNHHHAEMLMSWRVNDHKFTPLLCEIWDVQ | 1.3 | 0.9 | 1.30 | 0.92 | 77.7 | 0.9 | 0.78 | 24.6 | 0.8 | 2.8 | 0.9 | 0.95 | 62.6 | 1.0 | 1.00 | 14.0 | 2.5 | 2.50
